From the supplement of paper PMC11780869

Test system: Bacillus subtilis
Assay: cleaved RNA product abundance (RNA/gDNA barcode ratio) relative to median wild-type variant (ratio to wild type); higher = more accumulation of the downstream cleavage product
Settings: cleavage site: cggR-gapA (positions -7 to +36 mutated)
Method in brief: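 The B. subtilis chromosome carried reporter mRNAs, truncated aprE or tetM, containing barcoded RNase Y cleavage-site windows mutagenized using oligos with a 9% error rate. After growth in LB at 37°C from OD600 0.0003 to 0.3, cleaved RNA was gel-selected, reverse transcribed and barcode-sequenced next to genomic DNA barcodes, with UMI collapsing. Each construct's RNA:gDNA barcode ratio was scaled to the median construct with the unmutated site. That scaled ratio is reported as cleaved product abundance.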

[1] = experiment (reporter, strain, medium): exp 2b: truncated aprE reporter, strain BJT200
[2] = experiment (reporter, strain, medium): exp 4a: truncated aprE reporter, strain BJT201 with 2% xylose (RNase J1 expressed)
[3] = experiment (reporter, strain, medium): exp 6: tetM reporter, strain 168

| Sequence | cleaved RNA product abundance [1] | cleaved RNA product abundance [2] | cleaved RNA product abundance [3] |
| --- | --- | --- | --- |
| ACAGACGAAGGAGCCGCAAAGAAGTTATTAAGGTATGAATACTCCCTCAATATAAATATCTCTCACTTATTTAAA | 0.0931 | 0.135 | – |
| ACAGACGAAGGAGCCGCAAAGAAGTTATTAAGGTATGAATATTCCCTCAATATAAATATCTCTCACTTATTTAAA | – | 0.0859 | – |
| ACAGACGAAGGAGCCGCAAAGAAGTTATTAAGGTATGAATCATCCCTCAATATAAATATCTCTCACTTATTTAAA | – | 0.176 | – |
| ACAGACGAAGGAGCCGCAAAGAAGTTATTAAGGTATGAATGATCCCTCAATATAAATATCTCTCACTTATTTAAA | 0.0901 | 0.0732 | – |
| ACAGACGAAGGAGCCGCAAAGAAGTTATTAAGGTATGAATTATCCCTCAATATAAATATCTCTCACTTATTTAAA | 0.15 | – | – |
| ACAGACGAAGGAGCCGCAAAGAAGTTATTAAGGTATGACTAATCCCTCAATATAAATATCTCTCACTTATTTAAA | – | 0.107 | – |
| ACAGACGAAGGAGCCGCAAAGAAGTTATTAAGGTATGAGTAATCCCTCAATATAAATATCTCTCACTTATTTAAA | – | 0.224 | – |
| ACAGACGAAGGAGCCGCAAAGAAGTTATTAAGGTATGATTAATCCCTCAATATAAATATCTCTCACTTATTTAAA | – | 0.153 | – |
| ACAGACGAAGGAGCCGCAAAGAAGTTATTAAGGTATGCATAATCCCTCAATATAAATATCTCTCACTTATTTAAA | – | 0.126 | – |
| ACAGACGAAGGAGCCGCAAAGAAGTTATTAAGGTATGTATAATCCCTCAATATAAATATCTCTCACTTATTTAAA | 0.108 | 0.127 | – |
| ACAGACGAAGGAGCCGCAAAGAAGTTATTAAGGTATTAATAATCCCTCAATATAAATATCTCTCACTTATTTAAA | 0.0984 | 0.169 | – |
| ACAGACGAAGGAGCCGCAAAGAAGTTATTAAGGTCTGAATAATCCCTCAATATAAATATCTCTCACTTATTTAAA | – | 0.0753 | 0.101 |
| ACAGACGAAGGAGCCGCAAAGAAGTTATTAAGGTTTGAATAATCCCTCAATATAAATATCTCTCACTTATTTAAA | 0.102 | 0.144 | – |
| ACAGACGAAGGAGCCGCAAAGAAGTTATTAAGTAATAAATAATCCCTCAATATAAATATCTCTCACTTATTTAAA | – | 0.0519 | – |
| ACAGACGAAGGAGCCGCAAAGAAGTTATTAAGTAATGAATAACCCCTCAATATAAATATCTCTCACTTATTTAAA | 0.084 | 0.127 | – |
| ACAGACGAAGGAGCCGCAAAGAAGTTATTAAGTAATGAATAATCCCTCAATATAAATATCTCTCACTTATTTAAA | 0.102 | 0.099 | – |
| ACAGACGAAGGAGCCGCAAAGAAGTTATTAAGTCATGAATAATCCCTCAATATAAATATCTCTCACTTATTTAAA | 0.0957 | 0.106 | – |
| ACAGACGAAGGAGCCGCAAAGAAGTTATTAAGTGAAGAATAATCCCTCAATATAAATATCTCTCACTTATTTAAA | – | 0.0841 | – |
| ACAGACGAAGGAGCCGCAAAGAAGTTATTAAGTGACGAATAATCCCTCAATATAAATATCTCTCACTTATTTAAA | – | 0.0518 | – |
| ACAGACGAAGGAGCCGCAAAGAAGTTATTAAGTGAGGAATAATCCCTCAATATAAATATCTCTCACTTATTTAAA | – | 0.16 | – |

| Sequence | cleaved RNA product abundance [1] | cleaved RNA product abundance [2] | cleaved RNA product abundance [3] |
| --- | --- | --- | --- |
| ACAGACGAAGGAGCCGCAAAGAAGTTATTAAGTGATAAATAATCCCTCAATATAAATATCTCTCACTTATTTAAA | – | 0.103 | 0.113 |
| ACAGACGAAGGAGCCGCAAAGAAGTTATTAAGTGATAAATAATTCCTCAATATAAATATCTCTCACTTATTTAAA | – | 0.0999 | – |
| ACAGACGAAGGAGCCGCAAAGAAGTTATTAAGTGATCAATAATCCCTCAATATAAATATCTCTCACTTATTTAAA | 0.0674 | 0.137 | – |
| ACAGACGAAGGAGCCGCAAAGAAGTTATTAAGTGATGAAAAATCCCTCAATATAAATATCTCTCACTTATTTAAA | 0.118 | 0.0967 | – |
| ACAGACGAAGGAGCCGCAAAGAAGTTATTAAGTGATGAACAATCCCTCAATATAAATATCTCTCACTTATTTAAA | – | 0.109 | – |
| ACAGACGAAGGAGCCGCAAAGAAGTTATTAAGTGATGAAGAATCCCTCAATATAAATATCTCTCACTTATTTAAA | 0.0943 | 0.0723 | – |
| ACAGACGAAGGAGCCGCAAAGAAGTTATTAAGTGATGAATAAACCCTCAATATAAATATCTCTCACTTATTTAAA | 0.113 | 0.0945 | – |
| ACAGACGAAGGAGCCGCAAAGAAGTTATTAAGTGATGAATAACCCCTCAATATAAATATCTCTCACTTATTTAAA | – | 0.109 | – |
| ACAGACGAAGGAGCCGCAAAGAAGTTATTAAGTGATGAATAATACCTCAATATAAATATCTCTCACTTATTTAAA | 0.109 | 0.0926 | – |
| ACAGACGAAGGAGCCGCAAAGAAGTTATTAAGTGATGAATAATCACTCAATATAAATAACTCTCACTTATTTAAA | – | 1.16 | – |
| ACAGACGAAGGAGCCGCAAAGAAGTTATTAAGTGATGAATAATCACTCAATATAAATATCTCTCACTTATTTAAA | 0.81 | 1.13 | – |
| ACAGACGAAGGAGCCGCAAAGAAGTTATTAAGTGATGAATAATCCATCAATATAAATATCTCTCACTTATTTAAA | 0.153 | 0.165 | – |
| ACAGACGAAGGAGCCGCAAAGAAGTTATTAAGTGATGAATAATCCCACAATATAAATATCTCTCACTTATTTAAA | 0.0986 | 0.0805 | – |
| ACAGACGAAGGAGCCGCAAAGAAGTTATTAAGTGATGAATAATCCCCCAATATAAATATCTCTCACTTATTTAAA | – | 0.127 | – |
| ACAGACGAAGGAGCCGCAAAGAAGTTATTAAGTGATGAATAATCCCTAAATATAAATATCTCTCACTTATTTAAA | 0.143 | 0.146 | – |
| ACAGACGAAGGAGCCGCAAAGAAGTTATTAAGTGATGAATAATCCCTCAAAATAAATATCTCTCACTTATTTAAA | 0.102 | 0.124 | – |
| ACAGACGAAGGAGCCGCAAAGAAGTTATTAAGTGATGAATAATCCCTCAACATAAATATCTCTCACTTATTTAAA | – | 0.0935 | – |
| ACAGACGAAGGAGCCGCAAAGAAGTTATTAAGTGATGAATAATCCCTCAATAAAAATATCTCTCACTTATTTAAA | – | 0.0655 | 0.11 |
| ACAGACGAAGGAGCCGCAAAGAAGTTATTAAGTGATGAATAATCCCTCAATACAAATATCTCTCACTTATTTAAA | 0.102 | 0.057 | – |
| ACAGACGAAGGAGCCGCAAAGAAGTTATTAAGTGATGAATAATCCCTCAATAGAAATATCTCTCACTTATTTAAA | – | 0.0533 | – |

| Sequence | cleaved RNA product abundance [1] | cleaved RNA product abundance [2] | cleaved RNA product abundance [3] |
| --- | --- | --- | --- |
| ACAGACGAAGGAGCCGCAAAGAAGTTATTAAGTGATGAATAATCCCTCAATATAAAAATCTCTCACTTATTTAAA | – | 0.124 | – |
| ACAGACGAAGGAGCCGCAAAGAAGTTATTAAGTGATGAATAATCCCTCAATATAAACATCTCTCACTTATTTAAA | – | 0.116 | – |
| ACAGACGAAGGAGCCGCAAAGAAGTTATTAAGTGATGAATAATCCCTCAATATAAATAACTCTCACTTATTTAAA | – | 0.119 | – |
| ACAGACGAAGGAGCCGCAAAGAAGTTATTAAGTGATGAATAATCCCTCAATATAAATACCTCTCACTTATTTAAA | – | 0.105 | – |
| ACAGACGAAGGAGCCGCAAAGAAGTTATTAAGTGATGAATAATCCCTCAATATAAATATCTCTCACTTATTTAAA | 0.109 | 0.126 | 0.127 |
| ACAGACGAAGGAGCCGCAAAGAAGTTATTAAGTGATGAATAATCCCTCAATATAAATCTCTCTCACTTATTTAAA | 0.116 | – | – |
| ACAGACGAAGGAGCCGCAAAGAAGTTATTAAGTGATGAATAATCCCTCAATATAACTATCTCTCACTTATTTAAA | 0.146 | – | – |
| ACAGACGAAGGAGCCGCAAAGAAGTTATTAAGTGATGAATAATCCCTCAATATAATTATCTCTCACTTATTTAAA | – | 0.0685 | – |
| ACAGACGAAGGAGCCGCAAAGAAGTTATTAAGTGATGAATAATCCCTCAATATACATATCTCTCACTTATTTAAA | 0.0962 | 0.19 | – |
| ACAGACGAAGGAGCCGCAAAGAAGTTATTAAGTGATGAATAATCCCTCAATATATATATCTCTCACTTATTTAAA | 0.115 | 0.107 | – |
| ACAGACGAAGGAGCCGCAAAGAAGTTATTAAGTGATGAATAATCCCTCAATCTAAATATCTCTCACTTATTTAAA | – | 0.0609 | – |
| ACAGACGAAGGAGCCGCAAAGAAGTTATTAAGTGATGAATAATCCCTCAATTTAAATATCTCTCACTTATTTAAA | 0.0957 | 0.0598 | – |
| ACAGACGAAGGAGCCGCAAAGAAGTTATTAAGTGATGAATAATCCCTCATTATAAATATCTCTCACTTATTTAAA | 0.0978 | 0.151 | – |
| ACAGACGAAGGAGCCGCAAAGAAGTTATTAAGTGATGAATAATCCCTCCATATAAATATCTCTCACTTATTTAAA | – | 0.104 | – |
| ACAGACGAAGGAGCCGCAAAGAAGTTATTAAGTGATGAATAATCCCTCTATATAAATATCTCTCACTTATTTAAA | 0.109 | 0.128 | – |
| ACAGACGAAGGAGCCGCAAAGAAGTTATTAAGTGATGAATAATCCCTGAATATAAATATCTCTCACTTATTTAAA | 0.0871 | 0.0547 | – |
| ACAGACGAAGGAGCCGCAAAGAAGTTATTAAGTGATGAATAATCCCTTAATATAAATATCTCTCACTTATTTAAA | 0.6 | 0.388 | – |
| ACAGACGAAGGAGCCGCAAAGAAGTTATTAAGTGATGAATAATCCGTCAATATAAATATCTCTCACTTATTTAAA | 0.103 | 0.0842 | – |
